Measurements: US20160362487A1 (Regeneron, published 2016)

T1: cynomolgus monkey IL-33 expressed with a C-terminal hexahistidine tag (cynomolgus monkey)
T1 construct: also called MfIL-33-6His; Mf-IL-33-6His
T1 chain: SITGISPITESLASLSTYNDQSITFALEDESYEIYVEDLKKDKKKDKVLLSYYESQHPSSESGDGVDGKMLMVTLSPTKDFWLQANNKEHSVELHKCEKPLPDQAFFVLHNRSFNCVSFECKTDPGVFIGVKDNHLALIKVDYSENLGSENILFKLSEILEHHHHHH

T2: human IL-33 (R&D Systems, #3625-IL-010/CF) (human, UniProt O95760 112-270)
T2 sequence (looked up): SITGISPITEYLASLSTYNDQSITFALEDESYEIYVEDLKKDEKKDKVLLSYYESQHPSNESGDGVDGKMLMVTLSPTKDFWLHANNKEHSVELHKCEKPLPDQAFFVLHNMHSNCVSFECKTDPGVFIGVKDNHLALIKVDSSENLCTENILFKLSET


Tests used:
[1] = target: T1, cynomolgus monkey IL-33 expressed with …; assay: BLI; captured MfIL-33-6His, mAb-1 step with Isotype control
Description: Binding competition between a panel of different anti-IL-33 monoclonal antibodies was determined using a real time, label-free bio-layer interferometry assay on an Octet® HTX biosensor (ForteBio, A Division of Pall Life Sciences). The experiment was performed at 25° C. using a buffer of 0.01M HEPES pH7.4, 0.15M NaCl, 3 mM EDTA, 0.05% v/v Surfactant Tween-20, and 0.1 mg/ml BSA (HBS-ET kinetics buffer) with the plate shaking at a speed of 1000 rpm. […] The antigen-captured biosensors were then saturated with a first anti-IL-33 monoclonal antibody (subsequently referred to as mAb-1) by immersion into wells containing 50 μg/mL solution of mAb-1 for 5 minutes. The biosensors were then dipped into wells containing a 50 μg/mL solution of a second anti-IL-33 monoclonal antibody (subsequently referred to as mAb-2) for 4 minutes. The biosensors were washed in HBS-ET kinetics buffer in between every step of the experiment. The real-time binding response was monitored during the experiment, and the maximum binding response for each binding step was recorded. The response of mAb-2 binding to MfIL-33-6His pre-complexed with mAb-1 was measured, and competitive/non-competitive behavior of different anti-IL-33 monoclonal antibodies with respect to each other was determined.

[2] = target: T2, human IL-33 (R&D Systems, …); assay: cell-based or functional assay
[3] = target: T1, cynomolgus monkey IL-33 expressed with …; assay: cell-based or functional assay
[4] = target: T2, human IL-33 (R&D Systems, …); assay: BLI; hIL-33 pre-mixed with mAb-2 H1M9565N
Description: Binding competition between a panel of different anti-IL-33 monoclonal antibodies was determined using a real time, label-free bio-layer interferometry assay on an Octet® HTX biosensor (ForteBio, A Division of Pall Life Sciences). The experiment was performed at 25° C. using a buffer of 0.01M HEPES pH7.4, 0.15M NaCl, 0.05% v/v Surfactant Tween-20, and 0.1 mg/ml BSA (HBS-ET kinetics buffer) with the plate shaking at a speed of 1000 rpm. To assess whether two antibodies were able to compete with one another for binding to human IL-33, a pre-mix assay format was used where 100 nM of human IL-33 (R&D Systems; #3625-IL-010/CF) was pre-mixed with 500 nM of different anti-IL-33 monoclonal antibodies (subsequently referred to as mAb-2) for at least 2 hours prior to running the binding competition assay. […] Following the capture step, unoccupied anti-mouse Fc polyclonal antibody and anti-human Fc polyclonal antibody on the Octet biosensors were saturated by submerging them for 4 minutes into wells containing 200 μg/mL of a non-specific monoclonal antibody with a mouse Fc or with a human Fc, respectively. Finally, the Octet biosensors were immersed for 4 minutes into wells containing the pre-mixed samples of 100 nM of human IL-33 and 500 nM of mAb-2. At the end of each cycle, the non-covalently captured anti-IL-33 antibodies along with the bound pre-complex of human IL-33 and mAb-2 were removed from the biosensors using three alternate 20 second immersions into 10 mM HCl followed by submerging into HBS-ET kinetics buffer. The biosensors were washed in HBS-ET kinetics buffer in between every step of the experiment. The real-time binding response was monitored during the binding events, and the binding response (in units of nm) at the end of every step was recorded.

[5] = target: T2, human IL-33 (R&D Systems, …); assay: SPR 25C pH7.4, mAb captured
Description: (§1) Equilibrium dissociation constants (KD values) for IL-33 binding to purified anti-IL-33 monoclonal antibodies were determined using a real-time surface plasmon resonance biosensor using a Biacore 4000 instrument. The Biacore sensor surface was first derivatized by amine coupling with either a polyclonal rabbit anti-mouse antibody (GE, # BR-1008-38) or with a monoclonal mouse anti-human Fc antibody (GE, # BR-1008-39) to capture anti-IL-33 monoclonal antibodies expressed with mouse or with human IgG4 constant regions, respectively. All Biacore binding studies were performed in 0.01M ADA pH 7.4, 0.15M NaCl, 3 mM EDTA, and 0.05% v/v Surfactant Tween-20 (ABS-ET running buffer). […] Association of either hIL-33 or MfIL-33-6His to the captured monoclonal antibody was monitored for 4 minutes and their dissociation in ABS-ET running buffer was monitored for 10 minutes. The effect of reduced pH on the binding of each anti-IL-33 antibody to either hIL-33 or MfIL-33-6His was studied using an in-line pH chase assay format in 0.01M ADA pH 6.0, 0.15M NaCl, 3 mM EDTA, and 0.05% v/v Surfactant Tween-20 (ABS-ET pH6 buffer). To achieve this, association of either hIL-33 or MfIL-33-6His to the captured monoclonal antibody was monitored for 4 minutes in ABS-ET running buffer. Following a 30 second dissociation of either hIL-33 or MfIL-33-6His in ABS-ET running buffer, ABS-ET pH6 buffer was injected for 3 minutes, and the analyte dissociation under the low-pH conditions was measured. All the binding kinetic experiments were performed at both 25° C. and 37° C. Kinetic association (kₐ) and dissociation (kd) constants were determined by fitting the real-time sensorgrams to a 1:1 binding model using Scrubber 2.0c curve fitting software. Binding dissociation equilibrium constants (KD) and dissociative half-lives (t½) were calculated from the kinetic rate constants as: […]

[6] = target: T1, cynomolgus monkey IL-33 expressed with …; assay: SPR 25C pH7.4, mAb captured
Description: as §1

Row | mAb-2 Binding to the Pre-complex of mAb-1 & MfIL-33-6xHis [1] [nm] | IC50, inhibition of 10 pM hIL-33 activation of HEK293/hST2/NFkB-luciferase cells [2] [M] | IC50, inhibition of 5 pM MfIL-33-6His activation of HEK293/hST2/NFkB-luciferase cells [3] [M] | mAb-1 Binding to the Pre-complex of mAb-2 & hIL-33 [4] [nm] | Kd [5] [nM] | koff [5] [s⁻¹] | kon [5] [M⁻¹ s⁻¹] | t½ [5] [min] | Kd [6] [nM] | koff [6] [s⁻¹] | kon [6] [M⁻¹ s⁻¹] | t½ [6] [min] | Binder
1 | 0.26 | 2.5e-11 | 4.8e-09 | 0.57 | 0.453 | 0.000349 | 771000 | 33 | 2.55 | 0.0015 | 587000 | 8 | H4H9671P (antibody, human IgG4, V domains shown, Human IgG4 Fc (H4H)) VH: EVQLVESGGGLVQPGGSLRLSCAASGFTLRSYFMTWVRQVPGKGLEGVSAISGISGGTYYTDSVKGRFTISRDNSKNTLFLQMNSLRAEDTAVYFCARTVYSSSYYGGFQHWGQGTLVTVSS VL: DIQMTQSPSSVSVSVGDRVTITCRASQGISSWLAWYQQKPGKAPKLLIYVASSLQSGVPSRFSGSGSGTDFTLTISSLQPEDFATYYCQQTNSFPLTFGGGTKVEIK
2 | 0.25 | 3.5e-11 | 8.4e-09 | 0.45 | 0.334 | 0.000345 | 1.03e+06 | 33 | 4.84 | 0.00412 | 852000 | 2.8 | H4H9676P (antibody, human IgG4, V domains shown, Human IgG4 Fc (H4H)) VH: EVQLVESGGGLVQPGGSLRLSCSASGFTFSSYAMNWVRQAPGKGLEWVTAISGSGGGTYYADSVKGRFTISRDNSKNSLFLQLNSLRAEDTAVYYCAKQTYTSSWYGGFDIWGQGTMVTVSS VL: DIQMTQSPSSVSASVGDRVTITCRASQGFSSWLAWYQQIPGKAPKLLIYAASRLQSGVPSRFRGSGSGTDFTLTISSLQPEDFATYYCQQANSFPLTFGGGTKVEIK

Further lines, the binder ahead of its results:

Row | Binder | mAb-2 Binding to the Pre-complex of mAb-1 & MfIL-33-6xHis [1] [nm] | IC50, inhibition of 10 pM hIL-33 activation of HEK293/hST2/NFkB-luciferase cells [2] [M] | IC50, inhibition of 5 pM MfIL-33-6His activation of HEK293/hST2/NFkB-luciferase cells [3] [M] | mAb-1 Binding to the Pre-complex of mAb-2 & hIL-33 [4] [nm] | Kd [5] [nM] | koff [5] [s⁻¹] | kon [5] [M⁻¹ s⁻¹] | t½ [5] [min] | Kd [6] [nM] | koff [6] [s⁻¹] | kon [6] [M⁻¹ s⁻¹] | t½ [6] [min]
3 | H4H9667P (antibody, human IgG4, V domains shown, Human IgG4 Fc (H4H)) VH: EVQLVESGGGLVQPGGSLRLSCAASGFTFSTYSMHWVRQAPGKGLEYVSTINNNGDTTYYADSVKGRFTISRDNSKNTLYLQLGSLRPEDMAVYYCARQTYTSSWYGGFDSWGQGTLVTVSS VL: DIQMTQSPSSVSASVGDRVTITCRASQGITSWLAWYQQKPGKAPKLLIYAASNLQSGVPSRFSGSGSGTDFTLTITSLQPEDFATYYCQQANSLPFTFGPGTKVDIK | 0.26 | 7.1e-11 | 1.2e-08 | 0.48 | 0.395 | 0.000252 | 637000 | 46 | 2.89 | 0.000991 | 343000 | 12
4 | H4H9675P (antibody, human IgG4, V domains shown, Human IgG4 Fc (H4H)) VH: EVQLVESGGNLEQPGGSLRLSCTASGFTFSRSAMNWVRRAPGKGLEWVSGISGSGGRTYYADSVKGRFTISRDNSKNTLYLQMNSLSAEDTAAYYCAKDSYTTSWYGGMDVWGHGTTVTVSS VL: DIQMTQSPSSVSASVGDRVTITCRASQGIFSWLAWYQQKPGKAPKLLIYAASSLQSGVPSRFSGSGSGTDFTLTISSLQPEDFAIYYCQQANSVPITFGQGTRLEIK | 0.26 | 7.5e-12 | 4.1e-09 | 0.51 | 0.254 | 0.000258 | 1.02e+06 | 45 | 2.55 | 0.00129 | 506000 | 9
5 | H4H9672P (antibody, human IgG4, V domains shown, Human IgG4 Fc (H4H)) VH: EVQLVESGGGLVQPGGSLRLSCAASGFTLRSYVMYWVRQGPGKGLEGVSGISGSSGGTYYTDSVKGRFTISRDNSKNTLFLQMNSLRAEDTAVYFCARSVYSTTWYGGFQHWGQGTLVTVSS VL: DIQMTQSPSSVSVSVGDRVTITCRASQVISSWLAWYQLKPGKAPKLLIYAASSLQSGVPSRFSGSGSGTDFTLTISGLQPEDFAVYYCQQTNSFPLTFGGGTKVEIK | 0.25 | 2.5e-11 | 2e-08 | 0.52 | 0.527 | 0.000352 | 668000 | 33 | 8.22 | 0.0036 | 437000 | 3.2
6 | H4H9670P (antibody, V domains shown, Human IgG4 Fc (H4H)) VH: EVQLVESGGGLVQPGGSLRLSCAASGFTLSSYAMSWVRQAPGKGLEWVSAISGSGGSTYYADSVKGRFTISRDNSKNSLYLQLNSLRAEDTAVYYCAKTLYTTSWYGGFQHWGQGTLVTVSS VL: DIQMTQSPSSVSASIGDRVTITCRASQGISSWLAWYQQKPGKVPKLLIYAASSLQSGFPSRFSGSGSGTDFTLTISSLQPEDFATYYCQQTHSFPWTVGQGTKVEIK | 0.23 | 1.2e-10 | 1.7e-08 | 0.51 | 0.368 | 0.000289 | 786000 | 40 | 4.77 | 0.0021 | 440000 | 6
